B1: Catenin beta-1 (Mus musculus), Q02248 (parent)
chain: MATQADLMELDMAMEPDRKAAVSHWQQQSYLDSGIHSGATTTAPSLSGKGNPEEEDVDTSQVLYEWEQGFSQSFTQEQVADIDGQYAMTRAQRVRAAMFPETLDEGMQIPSTQFDAAHPTNVQRLAEPSQMLKHAVVNLINYQDDAELATRAIPELTKLLNDEDQVVVNKAAVMVHQLSKKEASRHAIMRSPQMVSAIVRTMQNTNDVETARCTAGTLHNLSHHREGLLAIFKSGGIPALVKMLGSPVDSVLFYAITTLHNLLLHQEGAKMAVRLAGGLQKMVALLNKTNVKFLAITTDCLQILAYGNQESKLIILASGGPQALVNIMRTYTYEKLLWTTSRVLKVLSVCSSNKPAIVEAGGMQALGLHLTDPSQRLVQNCLWTLRNLSDAATKQEGMEGLLGTLVQLLGSDDINVVTCAAGILSNLTCNNYKNKMMVCQVGGIEALVRTVLRAGDREDITEPAICALRHLTSRHQEAEMAQNAVRLHYGLPVVVKLLHPPSHWPLIKATVGLIRNLALCPANHAPLREQGAIPRLVQLLVRAHQDTQRRTSMGGTQQQFVEGVRMEEIVEGCTGALHILARDVHNRIVIRGLNTIPLFVQLLYSPIENIQRVAAGVLCELAQDKEAAEAIEAEGATAPLTELLHSRNEGVATYAAAVLFRMSEDKPQDYKKRLSVELTSSLFRTEPMAWNETADLGLDIGAQGEALGYRQDDPSYRSFHSGGYGQDALGMDPMMEHEMGGHHPGADYPVDGLPDLGHAQDLMDGLPPGDSNQLAWFDTDL
partner: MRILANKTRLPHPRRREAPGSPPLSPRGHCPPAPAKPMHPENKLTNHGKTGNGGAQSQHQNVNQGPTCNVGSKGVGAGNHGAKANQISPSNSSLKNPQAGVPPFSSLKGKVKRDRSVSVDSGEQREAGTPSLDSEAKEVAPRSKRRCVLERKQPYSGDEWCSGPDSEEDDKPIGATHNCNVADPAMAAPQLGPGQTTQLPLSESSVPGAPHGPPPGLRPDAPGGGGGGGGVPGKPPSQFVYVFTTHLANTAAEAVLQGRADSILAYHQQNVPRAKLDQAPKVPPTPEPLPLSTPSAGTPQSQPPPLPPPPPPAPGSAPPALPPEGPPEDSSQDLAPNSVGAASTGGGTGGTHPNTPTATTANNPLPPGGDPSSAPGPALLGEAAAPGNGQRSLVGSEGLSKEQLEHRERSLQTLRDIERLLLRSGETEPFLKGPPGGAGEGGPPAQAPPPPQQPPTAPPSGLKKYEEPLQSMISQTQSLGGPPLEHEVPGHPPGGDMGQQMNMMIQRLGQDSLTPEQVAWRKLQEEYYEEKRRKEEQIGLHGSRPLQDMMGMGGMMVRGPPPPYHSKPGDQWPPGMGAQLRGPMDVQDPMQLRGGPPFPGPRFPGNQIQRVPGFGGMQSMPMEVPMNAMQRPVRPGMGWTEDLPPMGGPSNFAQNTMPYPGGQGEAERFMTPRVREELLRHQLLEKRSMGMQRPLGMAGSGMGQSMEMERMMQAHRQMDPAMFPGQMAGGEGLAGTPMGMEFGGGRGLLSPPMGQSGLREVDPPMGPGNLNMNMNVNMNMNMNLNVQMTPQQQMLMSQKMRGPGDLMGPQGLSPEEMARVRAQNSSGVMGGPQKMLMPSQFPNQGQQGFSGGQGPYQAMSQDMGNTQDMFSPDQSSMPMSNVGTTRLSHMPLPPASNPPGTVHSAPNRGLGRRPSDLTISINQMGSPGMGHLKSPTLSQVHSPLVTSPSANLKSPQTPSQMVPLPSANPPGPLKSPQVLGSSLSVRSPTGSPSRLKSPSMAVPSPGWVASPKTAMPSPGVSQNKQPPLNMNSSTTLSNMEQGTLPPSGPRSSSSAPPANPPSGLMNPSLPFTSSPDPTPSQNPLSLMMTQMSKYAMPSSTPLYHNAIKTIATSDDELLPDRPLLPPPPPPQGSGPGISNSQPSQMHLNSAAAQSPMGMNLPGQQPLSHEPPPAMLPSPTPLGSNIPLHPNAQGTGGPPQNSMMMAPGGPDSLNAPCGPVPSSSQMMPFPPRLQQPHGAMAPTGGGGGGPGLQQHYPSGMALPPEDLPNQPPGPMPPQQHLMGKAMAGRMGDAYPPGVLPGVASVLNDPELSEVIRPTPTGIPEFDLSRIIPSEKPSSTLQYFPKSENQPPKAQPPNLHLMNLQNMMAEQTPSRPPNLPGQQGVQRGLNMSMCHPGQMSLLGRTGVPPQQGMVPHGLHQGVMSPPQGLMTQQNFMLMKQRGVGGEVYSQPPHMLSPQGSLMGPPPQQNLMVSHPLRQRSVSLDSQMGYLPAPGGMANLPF
B2: Armadillo segment polarity protein (Drosophila melanogaster (Fruit fly)), P18824 (parent)
chain: MSYMPAQNRTMSHNNQYNPPDLPPMVSAKEQTLMWQQNSYLGDSGIHSGAVTQVPSLSGKEDEEMEGDPLMFDLDTGFPQNFTQDQVDDMNQQLSQTRSQRVRAAMFPETLEEGIEIPSTQFDPQQPTAVQRLSEPSQMLKHAVVNLINYQDDAELATRAIPELIKLLNDEDQVVVSQAAMMVHQLSKKEASRHAIMNSPQMVAALVRAISNSNDLESTKAAVGTLHNLSHHRQGLLAIFKSGGIPALVKLLSSPVESVLFYAITTLHNLLLHQDGSKMAVRLAGGLQKMVTLLQRNNVKFLAIVTDCLQILAYGNQESKLIILASGGPNELVRIMRSYDYEKLLWTTSRVLKVLSVCSSNKPAIVDAGGMQALAMHLGNMSPRLVQNCLWTLRNLSDAATKVEGLEALLQSLVQVLGSTDVNVVTCAAGILSNLTCNNQRNKATVCQVGGVDALVRTIINAGDREEITEPAVCALRHLTSRHVDSELAQNAVRLNYGLSVIVKLLHPPSRWPLIKAVIGLIRNLALCPANHAPLREHGAIHHLVRLLMRAFQDTERQRSSIATTGSQQPSAYADGVRMEEIVEGTVGALHILARESHNRALIRQQSVIPIFVRLLFNEIENIQRVAAGVLCELAADKEGAEIIEQEGATGPLTDLLHSRNEGVATYAAAVLFRMSEDKPQDYKKRLSIELTNSLLREDNNIWANADLGMGPDLQDMLGPEEAYEGLYGQGPPSVHSSHGGRAFHQQGYDTLPIDSMQGLEISSPVGGGGAGGAPGNGGAVGGASGGGGNIGAIPPSGAPTSPYSMDMDVGEIDAGALNFDLDAMPTPPNDNNNLAAWYDTDC
partner: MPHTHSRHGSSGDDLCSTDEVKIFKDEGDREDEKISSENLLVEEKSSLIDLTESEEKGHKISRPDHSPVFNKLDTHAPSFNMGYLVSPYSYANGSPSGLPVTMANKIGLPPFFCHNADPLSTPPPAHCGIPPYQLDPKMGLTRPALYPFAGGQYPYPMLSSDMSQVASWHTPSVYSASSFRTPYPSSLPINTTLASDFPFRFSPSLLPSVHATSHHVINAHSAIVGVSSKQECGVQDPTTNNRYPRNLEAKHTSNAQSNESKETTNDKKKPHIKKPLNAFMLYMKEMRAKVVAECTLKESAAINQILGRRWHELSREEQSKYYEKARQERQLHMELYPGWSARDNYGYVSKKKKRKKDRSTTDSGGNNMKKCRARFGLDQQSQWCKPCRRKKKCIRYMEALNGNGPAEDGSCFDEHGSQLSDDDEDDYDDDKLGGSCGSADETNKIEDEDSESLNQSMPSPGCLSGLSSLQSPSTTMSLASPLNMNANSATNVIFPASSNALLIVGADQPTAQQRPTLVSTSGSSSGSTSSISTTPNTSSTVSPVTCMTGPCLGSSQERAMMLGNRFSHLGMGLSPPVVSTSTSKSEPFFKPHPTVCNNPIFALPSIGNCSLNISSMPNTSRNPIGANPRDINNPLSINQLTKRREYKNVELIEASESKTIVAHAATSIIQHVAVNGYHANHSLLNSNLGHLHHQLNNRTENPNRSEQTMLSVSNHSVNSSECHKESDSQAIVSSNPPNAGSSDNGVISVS
B3: Armadillo segment polarity protein (Drosophila melanogaster (Fruit fly)), P18824 (parent)
chain: B2 chain
partner: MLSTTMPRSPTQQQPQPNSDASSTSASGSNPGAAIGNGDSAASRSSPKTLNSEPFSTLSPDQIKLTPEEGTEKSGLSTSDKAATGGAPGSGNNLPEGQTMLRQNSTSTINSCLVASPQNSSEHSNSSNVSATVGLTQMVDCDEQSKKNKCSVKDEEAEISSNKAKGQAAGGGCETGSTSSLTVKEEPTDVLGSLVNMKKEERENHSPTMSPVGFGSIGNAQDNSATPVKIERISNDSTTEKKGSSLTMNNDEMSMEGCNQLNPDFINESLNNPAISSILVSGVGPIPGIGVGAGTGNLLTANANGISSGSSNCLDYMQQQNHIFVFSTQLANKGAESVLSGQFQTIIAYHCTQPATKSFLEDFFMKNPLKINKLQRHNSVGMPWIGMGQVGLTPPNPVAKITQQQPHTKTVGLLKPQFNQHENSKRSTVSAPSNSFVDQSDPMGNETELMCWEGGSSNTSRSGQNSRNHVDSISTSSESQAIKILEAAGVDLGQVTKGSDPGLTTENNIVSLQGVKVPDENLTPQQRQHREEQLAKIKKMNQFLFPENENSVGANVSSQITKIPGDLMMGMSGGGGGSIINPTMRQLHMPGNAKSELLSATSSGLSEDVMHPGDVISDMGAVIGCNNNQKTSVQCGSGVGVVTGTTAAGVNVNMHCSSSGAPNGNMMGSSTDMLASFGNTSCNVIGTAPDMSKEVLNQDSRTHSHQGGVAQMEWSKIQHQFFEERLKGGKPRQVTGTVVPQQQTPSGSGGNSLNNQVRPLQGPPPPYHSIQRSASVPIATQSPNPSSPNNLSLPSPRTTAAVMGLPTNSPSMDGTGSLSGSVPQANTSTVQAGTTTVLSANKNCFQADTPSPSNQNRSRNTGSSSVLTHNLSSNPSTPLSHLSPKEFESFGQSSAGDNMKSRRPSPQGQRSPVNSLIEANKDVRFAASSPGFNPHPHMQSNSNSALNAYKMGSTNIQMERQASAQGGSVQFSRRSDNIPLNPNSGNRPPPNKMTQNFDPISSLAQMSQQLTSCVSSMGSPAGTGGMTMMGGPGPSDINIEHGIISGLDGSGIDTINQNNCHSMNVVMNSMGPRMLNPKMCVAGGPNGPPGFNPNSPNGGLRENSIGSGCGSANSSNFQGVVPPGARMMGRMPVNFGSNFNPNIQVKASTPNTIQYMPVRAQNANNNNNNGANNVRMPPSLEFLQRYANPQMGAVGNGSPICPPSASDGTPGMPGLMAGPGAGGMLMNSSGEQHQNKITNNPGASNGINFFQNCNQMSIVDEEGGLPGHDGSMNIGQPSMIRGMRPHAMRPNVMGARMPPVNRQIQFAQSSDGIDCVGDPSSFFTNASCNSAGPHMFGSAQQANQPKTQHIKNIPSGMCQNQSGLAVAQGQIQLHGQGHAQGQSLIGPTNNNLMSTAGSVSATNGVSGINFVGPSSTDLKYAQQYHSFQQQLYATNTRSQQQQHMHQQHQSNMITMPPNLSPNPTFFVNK

Variants of: B1
Conditions: with bcl9l_human BCL9L

**Q.** With D164A as the variant, how does the “effect of a mutation on the interaction” value read?
**A.** disrupting interaction

Variants of: B2
Conditions: with pang1_drome pan

**Q.** For D172A, which “effect of a mutation on the interaction” value is on record?
**A.** disrupting interaction

Variants of: B3
Conditions: with bcl9_drome lgs

**Q.** Which “effect of a mutation on the interaction” value does the source give for D172A here?
**A.** disrupting interaction

Source: IntAct's records for PubMed 17113272
